Assay results published in patent publication US20090136516A1 (DUKE UNIVERSITY, published 2009).
Positions count from the first letter of the chain named.

T1: human CD20 (human, UniProt P11836 1-297)
T1 construct: whole, on cells; also called cell surface CD20
T1 sequence (looked up): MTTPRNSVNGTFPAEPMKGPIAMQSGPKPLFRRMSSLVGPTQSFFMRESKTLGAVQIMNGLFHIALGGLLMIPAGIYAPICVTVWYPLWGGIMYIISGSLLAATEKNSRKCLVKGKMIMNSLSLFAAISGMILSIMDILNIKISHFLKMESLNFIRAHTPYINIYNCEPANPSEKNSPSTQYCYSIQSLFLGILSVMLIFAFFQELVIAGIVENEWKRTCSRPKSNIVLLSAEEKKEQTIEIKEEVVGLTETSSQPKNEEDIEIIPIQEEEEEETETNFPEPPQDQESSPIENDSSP

T2: mouse CD20 (mouse, UniProt P19437 1-291)
T2 construct: whole, on cells; Endogenous mouse CD20 on primary B cells; also called cell-surface CD20
T2 sequence (looked up): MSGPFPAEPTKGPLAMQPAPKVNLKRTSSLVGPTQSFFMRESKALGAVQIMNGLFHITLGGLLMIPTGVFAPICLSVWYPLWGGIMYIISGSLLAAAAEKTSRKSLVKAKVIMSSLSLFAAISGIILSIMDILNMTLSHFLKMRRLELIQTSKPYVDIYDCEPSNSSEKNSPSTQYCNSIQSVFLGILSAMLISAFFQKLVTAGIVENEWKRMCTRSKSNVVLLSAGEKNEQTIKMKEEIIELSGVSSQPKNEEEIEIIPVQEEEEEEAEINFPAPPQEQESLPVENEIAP

T3: mouse CD20 (mouse) (UniProt P19437)
T3 sequence (looked up): T2 sequence (looked up)

B1: HB20-25 monoclonal antibody (antibody, V domains shown)
VH: EVQLQESGAELVKPGASVKMSCKASGFRFTNYNLHWVKQTPGQGLEWIGAIYPGNGETSYNQKFKGKATLTADKSSSTAYMQLRSLTSGDSAVYYCARFYYYGSSYGAMDYWGQGTSVTVSS
VL: DIQMTQSPASLSVSVGETVTITCRASENIYSNLAWYQQKQGKSPQLLVYAATNLADGVPSRFSGSGSGTQYSLKINSLQSEDFGSYYCQHFWGIPWTFGGGTKLEIKR
notes: Used as tissue culture supernatant
B2: HB20-3 monoclonal antibody (antibody, V domains shown)
VH: EVQLQESGAELVKPGASVKMSCKASGFTFTNYNMHWLKQTPGQGLEWIGAIYPENGDTSYNQKFKGKATLTADKASSTAYMHLSSLTSEDSAVYFCARFYYYGSYYGAMDYWGQGTSVTVSS
VL: DIQMTQSPASLSASVGETVTITCRASGNIHNYLAWYQQKQGKSPQLLVYNAKTLADGVPSRFSGSGSGTQFSLKINSLQPEDFGSYYCQHFWSTPWTFGGGTKLEIKR
notes: Used as tissue culture supernatant; also called HB20-03; HB13c
B3: HB20-4 monoclonal antibody (antibody, V domains shown)
VH: B2 VH with L37V, K63R, A75S, S91T, M109L
VL: B2 VL with N28S, Q40L, T94I
notes: Used as tissue culture supernatant; also called HB20-04; HB13d
B4: MB20-1 monoclonal antibody (antibody, V domains shown)
VH: EVQLQESGGGLVQPGGSLKLSCAASGFTFSDYGMAWVRQAPRKGPEWVAFISNLAYSIYYADTVTGRFTISRENAKNTLYLEMSSLRSEDTAMYFCTRTGYYALDYWGQGTSVTVSS
VL: NIMMTQSPSSLAVSAGEKVTMRCKSSQSVLYSSKRKNYLAWYQQKPGKSPTLLIYWASTRESGVPDRFTGSGSGTDFTLTITSVQAEDLAVYYCHQYLSSFTFGGGTKLEIKR
notes: Mouse anti-mouse CD20 hybridoma antibody, IgG1; also called MB20-01
B5: MB20-13 monoclonal antibody (antibody, V domains shown)
VH: B4 VH
VL: EIVLAQSPTTTAASPGEKITITCSASSSITSNYLHWYQQKPGFSPKLLIYRTSNLASGVPARFSGSGSGTSYSLTIGTMEAEDVATYYCQQGSSKTLTFGAGTKLELKR
notes: Mouse anti-mouse CD20 hybridoma antibody, IgG3
B6: MB20-18 monoclonal antibody (antibody, V domains shown)
VH: EVQLQESGLDLVKPGASVKISCKASGYTFTDYYMKWVKQSHGKSLDWIGDINPNNGDIIYNQKFEGKATLTVDKSSSTAYMELRSLTSEDSAVYYCARERFAYWGQGTLVTVSA
VL: SIVMTQTPKFLLVSTGDRVTITCKASQTVTNDLAWYQQKPGQSPKLLIYYASNRYTGVPDRFTGSGYGTDFTFTINTVQAEDLAVYFCQQDYSSPLTFGAGTKLELKR
notes: Mouse anti-mouse CD20 hybridoma antibody, IgG2b
B7: MB20-8 monoclonal antibody (antibody, V domains shown)
VH: B6 VH with L9P
VL: B5 VL with A5T, T11M, A25V, S28N, T30R, E80K, K95I, T96P
notes: Mouse anti-mouse CD20 hybridoma antibody, IgG2b; also called MB20-08
B8: MB20-10 monoclonal antibody (antibody, V domains shown)
VH: B6 VH with L9P
VL: B5 VL with A5T, T11M, A25V, S28N, T30R, E80K, K95I, T96P
notes: as for B6
B9: MB20-14 monoclonal antibody (antibody, V domains shown)
VH: B6 VH with L9P, D10E, T28M, M34I, D46E, I58T, E65K, S77N, E82D, S85I
VL: B5 VL with A5T, T11M, A25V, T30R, I76V, G77A, K95I, T96P
notes: Mouse anti-mouse CD20 hybridoma antibody, IgG1
B10: MB20-2 monoclonal antibody (antibody, V domains shown)
VH: B6 VH with L9P, D10E, T28M, M34I, D46E, I58T, E65K, S77N, E82D
VL: B5 VL with A5T, T11M, A25V, T30R, I76V, G77A, K95I, T96P
notes: Mouse anti-mouse CD20 hybridoma antibody, IgG1; also called MB20-02
B11: MB20-7 monoclonal antibody (antibody, V domains shown)
VH: B6 VH with L9P, T28M, D46E, I58T, I59T
VL: B5 VL with I2L, A5T, T11K, A25V, T30R, K40R, K95L, T96P
notes: Mouse anti-mouse CD20 hybridoma antibody, IgG2b; also called MB20-07
B12: 1F5 anti-CD20 monoclonal antibody (antibody, V domains shown)
VH: QVQLRQPGAELVKPGASVKMSCKASGYTFTSYNMHWVKQTPGQGLEWIGAIYPGNGDTSYNQKFKGKATLTADKSSSTAYMQLSSLTSEDSAVYYCARSHYGSNYVDYFDYWGQGTTLTVSS
VL: DIVLSQSPAILSASPGEKVTMTCRASSSLSFMHWYQQKPGSSPKPWIYATSNLASGVPARFSGSGSGTSYSLTISRVEAEDAATYFCHQWSSNPLTFGAGTKLELK
B13: B9E9 anti-CD20 monoclonal antibody (antibody, V domains shown)
VH: QVQLVQSGAELVKPGASVKMSCKASGYTFTSYNMHWVKQTPGQGLEWIGAIYPGNGDTSYNQKFKGKATLTADKSSSTAYMQLSSLTSEDSAVYYCARAQLRPNYWYFDVWGAGTTVTVSS
VL: B12 VL with L29V, F31Y, F86Y, H88Q, S91I, L95P
B14: 1H4 (IgG2a) anti-CD20 monoclonal antibody (antibody)
chain 1: QVQLQQPGAELVKPGASVKMSCKTSGYTFTSYNVHWVKQTPGQGLEWIGAIYPGNGDTSFNQKFKGKATLTADKSSSTVYMQLSSLTSEDSAVYYCARSNYYGSSYVWFFDVWGAGTTGTGSS
chain 2: B12 VL with D1Q, A9T, L29V, F31Y, H33D, F86Y, H88Q, S91I, L95P
B15: MB20-16 monoclonal antibody (antibody, part only; not given: light chain, V domains shown, part only)
VH: EVQLQESGPELVKPGASVKMSCKASGYTFTDYNLHWVKQSHGQSLEWIGYINPNNGGATYNQKFTGKATLTVNRSSSTAYMELRSLTSDDSAVYYCAEIYDGYYWGQGTTLTVSS

Assays:
human CD20 [1] = molecular target: T1, human CD20; test: indirect immunofluorescence, flow cytometry, human blood B cells, saturating mAb
Method: (§1) Reactivity of human blood lymphocytes and the Raji, BJAB or DHL-4 B lymphoblastoid cell lines with anti-CD20 monoclonal antibodies at saturating concentrations or with secondary antibody alone (control). The anti-CD20 monoclonal antibodies were used at concentrations that were determined to be saturating and that gave optimal staining. 1F5, B9E9 and 1H4 (IgG2a) monoclonal antibodies were used as ascites fluid diluted 1:200. HB20-3, -4 and -25 monoclonal antibodies were used as tissue culture supernatant fluid. B1 monoclonal antibody was used at either 10 μg/mL of purified monoclonal antibody or as tissue culture supernatant fluid. In all cases, monoclonal antibody staining was visualized using PE-conjugated isotype-specific secondary antibodies with flow cytometry analysis. Values represent the mean linear fluorescence intensity of staining for each B cell population as determined by flow cytometry analysis. Results are representative of those obtained in ≧3 experiments.

human CD20 [2] = molecular target: T1, human CD20; test: indirect immunofluorescence, flow cytometry, Raji cells, saturating mAb
Method: as §1

human CD20 [3] = molecular target: T1, human CD20; test: indirect immunofluorescence, flow cytometry, BJAB cells, saturating mAb
Method: as §1

human CD20 [4] = molecular target: T1, human CD20; test: indirect immunofluorescence, flow cytometry, DHL-4 cells, saturating mAb
Method: as §1

mouse CD20 [5] = molecular target: T2, mouse CD20; test: flow cytometry, mouse spleen CD19+ B cells, control staining (background)
human CD20 [6] = molecular target: T1, human CD20; test: flow cytometry, DHL-4 cells, secondary antibody alone (background)
human CD20 [7] = molecular target: T1, human CD20; test: flow cytometry, BJAB cells, secondary antibody alone (background)
human CD20 [8] = molecular target: T1, human CD20; test: flow cytometry, Raji cells, secondary antibody alone (background)
human CD20 [9] = molecular target: T1, human CD20; test: flow cytometry, human blood B cells, secondary antibody alone (background)
mouse CD20 [10] = molecular target: T2, mouse CD20; test: flow cytometry, mouse spleen CD19+ B cells, mAb at 0.5 µg/mL, isotype-specific secondary antibody
Method: Twelve mouse anti-mouse CD20 monoclonal antibodies, with representatives of each IgG isotype, were assessed for their ability to bind B cells and deplete them in vivo. Each monoclonal antibody reacted uniformly with CD19⁺ primary B cells in vitro with characteristic mean fluorescence intensities that were independent of monoclonal antibody isotype (FIG. 6A). When monoclonal antibody reactivity with primary B cells was assessed over a range of monoclonal antibody concentrations, most monoclonal antibodies reached saturating levels of staining when used at concentrations between 1-10 μg/mL (FIG. 6B). […] When all monoclonal antibodies were used at 0.5 μg/mL, each monoclonal antibody reacted uniformly with CD19⁺ primary B cells with characteristic low to high mean fluorescence intensities (FIG. 6C, Table 5). Similar results were obtained using a mouse CD20 cDNA-transfected pre-B cell line with anti-mouse Ig secondary antibody. Based on this analysis, the MB20-1 monoclonal antibody represented monoclonal antibodies with the lowest relative affinity/avidity, while the MB20-18 monoclonal antibody reacted strongly with B cells and stained B cells at the highest levels of all 12 anti-CD20 monoclonal antibodies (Table 5).

mouse CD20 (mouse) = molecular target: T3, mouse CD20 (mouse); test: as above

| Molecule | mean linear fluorescence intensity (human CD20 [1]) | mean linear fluorescence intensity (human CD20 [2]) | mean linear fluorescence intensity (human CD20 [3]) | mean linear fluorescence intensity (human CD20 [4]) | B cell reactivity (mean linear fluorescence intensity) (mouse CD20 [10]) | other results |
| --- | --- | --- | --- | --- | --- | --- |
| B1 anti-CD20 monoclonal antibody |  |  |  |  |  | mean linear fluorescence intensity (mean linear fluorescence intensity) (human CD20 [1]): 277; mean linear fluorescence intensity (mean linear fluorescence intensity) (human CD20 [2]): 944; mean linear fluorescence intensity (mean linear fluorescence intensity) (human CD20 [3]): 700; mean linear fluorescence intensity (mean linear fluorescence intensity) (human CD20 [4]): 486 |
| isotype-matched control monoclonal antibodies (antibody) |  |  |  |  |  | B cell reactivity (mean linear fluorescence intensity) (mean linear fluorescence intensity) (mouse CD20 [5]): < 6 |
| secondary antibody alone (control) |  |  |  |  |  | mean linear fluorescence intensity (mean linear fluorescence intensity) (human CD20 [6]): 1; mean linear fluorescence intensity (mean linear fluorescence intensity) (human CD20 [7]): 10; mean linear fluorescence intensity (mean linear fluorescence intensity) (human CD20 [8]): 3; mean linear fluorescence intensity (mean linear fluorescence intensity) (human CD20 [9]): 1 |
| B1 | 227 mean linear fluorescence intensity | 1350 mean linear fluorescence intensity | 849 mean linear fluorescence intensity | 514 mean linear fluorescence intensity |  |  |
| B2 | 469 mean linear fluorescence intensity | 2220 mean linear fluorescence intensity | 1200 mean linear fluorescence intensity | 765 mean linear fluorescence intensity |  |  |
| B3 | 397 mean linear fluorescence intensity | 1580 mean linear fluorescence intensity | 1100 mean linear fluorescence intensity | 578 mean linear fluorescence intensity |  |  |
| B4 |  |  |  |  | 69 mean linear fluorescence intensity |  |
| B5 |  |  |  |  | 603 mean linear fluorescence intensity |  |
| B6 |  |  |  |  | 729 mean linear fluorescence intensity |  |
| B7 |  |  |  |  | 240 mean linear fluorescence intensity |  |
| B8 |  |  |  |  | 317 mean linear fluorescence intensity |  |
| B9 |  |  |  |  | 166 mean linear fluorescence intensity |  |
| B10 |  |  |  |  | 209 mean linear fluorescence intensity |  |
| B11 |  |  |  |  | 525 mean linear fluorescence intensity |  |
| B12 | 104 mean linear fluorescence intensity | 455 mean linear fluorescence intensity | 386 mean linear fluorescence intensity | 169 mean linear fluorescence intensity |  |  |
| B13 | 112 mean linear fluorescence intensity | 438 mean linear fluorescence intensity | 377 mean linear fluorescence intensity | 162 mean linear fluorescence intensity |  |  |
| B14 | 75 mean linear fluorescence intensity | 244 mean linear fluorescence intensity | 240 mean linear fluorescence intensity | 98 mean linear fluorescence intensity |  |  |
| B15 |  |  |  |  |  | B cell reactivity (mean linear fluorescence intensity) (mean linear fluorescence intensity) (mouse CD20 (mouse)): 170 |
